Here are results for 29 molecules from patent publication US20230212222A1 (ANYGEN CO., LTD., priority 2020, published 2023).

This experiment has as its target T1, GPR39 (G protein-coupled receptor 39) (Homo sapiens (Human), UniProt O43194 1-453).
T1 sequence: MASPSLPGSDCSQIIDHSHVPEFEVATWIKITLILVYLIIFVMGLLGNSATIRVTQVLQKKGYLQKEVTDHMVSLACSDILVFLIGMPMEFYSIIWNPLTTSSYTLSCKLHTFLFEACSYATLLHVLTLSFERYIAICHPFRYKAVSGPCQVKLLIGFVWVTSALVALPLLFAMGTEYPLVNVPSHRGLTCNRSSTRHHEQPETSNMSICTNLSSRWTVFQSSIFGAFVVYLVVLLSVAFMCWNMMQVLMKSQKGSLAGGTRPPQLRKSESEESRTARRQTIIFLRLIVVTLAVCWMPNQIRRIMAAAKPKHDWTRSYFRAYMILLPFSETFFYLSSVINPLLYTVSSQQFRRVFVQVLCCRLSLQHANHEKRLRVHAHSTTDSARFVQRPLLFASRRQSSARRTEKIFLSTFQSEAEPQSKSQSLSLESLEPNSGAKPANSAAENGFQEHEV
In words: cell-based or functional assay.

Square brackets hold non-standard residues; d marks the D form. Ends that are not written are not given here. * marks the point of attachment. 1,3‑difluorobenzhydryl = His with a 1-((2,4-difluorophenyl)(phenyl)methyl) group on the imidazole (N1); 4‑methoxylbenzhydryl = COc1ccc(C(c2ccccc2)*)cc1; 4‑chlorobenzhydryl = Clc1ccc(C(c2ccccc2)*)cc1; Fm = 9H-fluoren-9-yl, c1ccc2c(c1)-c1ccccc1C2*; dPhe(4-Br) = N[C@H](Cc1ccc(Br)cc1)C(=O)O; dPhe(4-Cl) = N[C@H](Cc1ccc(Cl)cc1)C(=O)O; dPhe(4-Me) = Cc1ccc(C[C@@H](N)C(=O)O)cc1; Trt = c1ccc(C(c2ccccc2)(c2ccccc2)*)cc1; dPhe(4-F) = N[C@H](Cc1ccc(F)cc1)C(=O)O; Dmt = Cc1cc(O)cc(C)c1C[C@H](N)C(=O)O; Benzhydryl = c1ccc(C(c2ccccc2)*)cc1; Palmitoyl = CCCCCCCCCCCCCCCC(=O)*; Myristoyl = CCCCCCCCCCCCCC(=O)*; Lauroyl = CCCCCCCCCCCC(=O)*; Decanoyl = CCCCCCCCCC(=O)*; Octanoyl = CCCCCCCC(=O)*; SO3H = O=S(=O)(O)*; Bn = c1ccc(C*)cc1

In the case of H(Benzhydryl)K(Octanoyl)[dPhe(4-Me)]Y(SO3H) [HKFY-35], the “EC50 (luciferase reporter)” value was 280 nM and the “ECmax (-fold induction over basal)” value was 18.9 -fold induction over basal.

For H(Bn)K(Octanoyl)FY [HKFY-3], the “EC50 (luciferase reporter)” value amounted to 4130 nM and the “ECmax (-fold induction over basal)” value is 9.2 -fold induction over basal.

Turning to [dH](Trt)K(Octanoyl)[dPhe(4-Me)]Y [HKFY-31], the “EC50 (luciferase reporter)” value amounted to 20 nM and the “ECmax (-fold induction over basal)” value was 20.9 -fold induction over basal. In the case of H(4‑methylbenzhydryl)K(Octanoyl)FY [HKFY-22], the “EC50 (luciferase reporter)” value came out at 59800 nM and the “ECmax (-fold induction over basal)” value was 21.3 -fold induction over basal. As for H(1,3‑difluorobenzhydryl)K(Octanoyl)[dPhe(4-Me)]Y [HKFY-32], the “EC50 (luciferase reporter)” value stood at 2 nM and the “ECmax (-fold induction over basal)” value was 21.5 -fold induction over basal.

For the molecule GSH(Trt)K(Octanoyl)FY [HKFY-37], the “EC50 (luciferase reporter)” value was determined as 1840 nM and the “ECmax (-fold induction over basal)” value is 16 -fold induction over basal.

On to H(Benzhydryl)K(Octanoyl)[dPhe(4-Me)][Dmt] [HKFY-36], for which the “EC50 (luciferase reporter)” value is 150 nM and the “ECmax (-fold induction over basal)” value was 9.9 -fold induction over basal. On the same counts, the results for H(Trt)K(Octanoyl)[dPhe(4-Me)]Y [HKFY-30] are 8 nM and 23.9 -fold induction over basal.

B1: HKFY-42 (peptide)
peptide: H(Trt)K(Octanoyl)FYHQQARF
modifications: not fully specified; printed as His(trt)-Lys(caprylic)-Phe-Tyr-His-Gln-Gln-Ala-Arg-Phe
Regarding B1, the “EC50 (luciferase reporter)” value turned out to be 1580 nM and the “ECmax (-fold induction over basal)” value was 11.8 -fold induction over basal.

Turning to H(adamantan‑1‑yl)K(Octanoyl)FY [HKFY-23], the “EC50 (luciferase reporter)” value is 2600 nM and the “ECmax (-fold induction over basal)” value was 15 -fold induction over basal. Turning to H(Trt)K(Myristoyl)FY [HKFY-26], the “EC50 (luciferase reporter)” value was determined as 280 nM and the “ECmax (-fold induction over basal)” value was 19.8 -fold induction over basal. Take H(Trt)K(Palmitoyl)FY [HKFY-27]: the “EC50 (luciferase reporter)” value worked out at 560 nM and the “ECmax (-fold induction over basal)” value was 20.4 -fold induction over basal. For H(Trt)K(Octanoyl)[dPhe(4-Br)]Y [HKFY-29], in that order: 310 nM and 26.8 -fold induction over basal. On the same counts, the results for H(Trt)K(Lauroyl)FY [HKFY-25] are 630 nM and 7.72 -fold induction over basal.

B2: HKFY-39 (peptide)
peptide: H(Trt)K(Octanoyl)FYSQNGARF
modifications: not fully specified; printed as His(trt)-Lys(caprylic)-Phe-Tyr-Ser-Gln-Asn-Gly-Ala-Arg-Phe
Consider B2, for which the “ECmax (-fold induction over basal)” value was 12.1 -fold induction over basal.

B3: HKFY-38 (peptide)
peptide: H(Trt)K(Octanoyl)FYSDQQARF
modifications: not fully specified; printed as His(trt)-Lys(caprylic)-Phe-Tyr-Ser-Asp-Gln-Gln-Ala-Arg-Phe
On to B3, for which the “EC50 (luciferase reporter)” value was found to be 3500 nM and the “ECmax (-fold induction over basal)” value is 16.5 -fold induction over basal. As to H(Fm)K(Octanoyl)FY [HKFY-18], the “EC50 (luciferase reporter)” value is 2290 nM and the “ECmax (-fold induction over basal)” value was 10 -fold induction over basal. With H(Trt)[dK](Octanoyl)[dPhe(4-Cl)]Y [HKFY-16], the “EC50 (luciferase reporter)” value was determined as 240 nM and the “ECmax (-fold induction over basal)” value is 27.9 -fold induction over basal. As to H(4‑chlorobenzhydryl)K(Octanoyl)FY (not fully specified) [HKFY-21], the “EC50 (luciferase reporter)” value came to 136000 nM and the “ECmax (-fold induction over basal)” value was 18.3 -fold induction over basal.

B4: HKFY-40 (peptide)
peptide: H(Trt)K(Octanoyl)FYSHQQARF
modifications: not fully specified; printed as His(trt)-Lys(caprylic)-Phe-Tyr-Ser-His-Gln-Gln-Ala-Arg-Phe
As for B4, the “EC50 (luciferase reporter)” value was determined as 1300 nM and the “ECmax (-fold induction over basal)” value was 13.4 -fold induction over basal. Take H(Trt)K(Octanoyl)[dPhe(4-F)]Y [HKFY-28]: the “EC50 (luciferase reporter)” value worked out at 74 nM and the “ECmax (-fold induction over basal)” value was 22.9 -fold induction over basal. With H(Benzhydryl)K(Octanoyl)FY [HKFY-33], the “EC50 (luciferase reporter)” value worked out at 150 nM and the “ECmax (-fold induction over basal)” value was 20 -fold induction over basal.

For the molecule H(Trt)K(Decanoyl)FY [HKFY-24], the “EC50 (luciferase reporter)” value was 240 nM and the “ECmax (-fold induction over basal)” value is 7.03 -fold induction over basal. For H(4‑methoxylbenzhydryl)K(Octanoyl)FY [HKFY-20], in that order: 159000 nM and 20.3 -fold induction over basal. On the same counts, the results for H(3,3‑diphenylethyl)K(Octanoyl)FY [HKFY-17] are 8120 nM and 20 -fold induction over basal. On the same counts, the results for H(phenethyl)K(Octanoyl)FY [HKFY-19] are 24600 nM and 18 -fold induction over basal.

B5: HKFY-43 (peptide)
peptide: H(Trt)K(Octanoyl)FYQNQARF
modifications: not fully specified; printed as His(trt)-Lys(caprylic)-Phe-Tyr-Gln-Asn-Gln-Ala-Arg-Phe
On to B5, for which the “EC50 (luciferase reporter)” value worked out at 1210 nM and the “ECmax (-fold induction over basal)” value was 12.1 -fold induction over basal. On the same counts, the results for H(Trt)K(Octanoyl)FYQNGARF [HKFY-41] are 9550 nM and 12.2 -fold induction over basal.

For the molecule [dH](Trt)K(Octanoyl)FY [HKFY-4], the “EC50 (luciferase reporter)” value was 130 nM and the “ECmax (-fold induction over basal)” value is 16.8 -fold induction over basal.
